Source: article PMC9482650, “Quantitative fragmentomics allow affinity mapping of interactomes” (Nature Communications, 2022)

Key:
Experiment in all cases: holdup assay
Set-up in all cases: key: below the threshold = too weak to quantify, mostly under pKd 3.1 to 4
Settings in all cases: plain residues with an end cap or a label only (N-terminal biotin on a linker: ado-ado)
TX1BP3, O14907 = biological target: T1, TX1BP3, O14907
T1 sequence (O14907 10-122, limits assumed, looked up): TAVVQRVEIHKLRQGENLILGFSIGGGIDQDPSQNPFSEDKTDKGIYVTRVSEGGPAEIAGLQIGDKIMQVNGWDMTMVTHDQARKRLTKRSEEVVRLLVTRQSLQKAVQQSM

DLG5_1, Q8TDM6 = biological target: DLG5_1, Q8TDM6
SNTG2, Q9NY99 = biological target: T2, SNTG2, Q9NY99
T2 sequence (Q9NY99 68-166, limits assumed, looked up): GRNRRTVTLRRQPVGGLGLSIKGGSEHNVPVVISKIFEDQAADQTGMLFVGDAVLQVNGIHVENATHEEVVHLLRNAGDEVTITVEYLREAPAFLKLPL

MAGI3_2, Q5TCQ9 = biological target: MAGI3_2, Q5TCQ9
RAPGEF6, Q8TEU7 = biological target: T3, RAPGEF6, Q8TEU7
T3 sequence (Q8TEU7 525-625, limits assumed, looked up): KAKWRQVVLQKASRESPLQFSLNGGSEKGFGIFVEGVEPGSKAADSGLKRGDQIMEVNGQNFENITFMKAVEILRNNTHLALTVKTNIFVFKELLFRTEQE

LIMK2, P53671 = biological target: LIMK2, P53671
PARD3B_1, Q8TEW8 = biological target: T4, PARD3B_1, Q8TEW8
T4 sequence (Q8TEW8 196-299, limits assumed, looked up): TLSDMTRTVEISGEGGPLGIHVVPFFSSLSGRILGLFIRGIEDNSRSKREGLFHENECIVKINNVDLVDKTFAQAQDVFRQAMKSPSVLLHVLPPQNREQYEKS

FRMPD2_3, Q68DX3 = biological target: FRMPD2_3, Q68DX3
MAGI2_6, Q86UL8 = biological target: MAGI2_6, Q86UL8
LIN7A, O14910 = biological target: T5, LIN7A, O14910
T5 sequence (O14910 103-200, limits assumed, looked up): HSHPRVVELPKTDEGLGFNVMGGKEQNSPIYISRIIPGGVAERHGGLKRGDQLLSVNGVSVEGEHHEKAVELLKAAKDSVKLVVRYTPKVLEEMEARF

APBA1_2, Q02410 = biological target: T6, APBA1_2, Q02410
T6 sequence (Q02410 742-832, limits assumed, looked up): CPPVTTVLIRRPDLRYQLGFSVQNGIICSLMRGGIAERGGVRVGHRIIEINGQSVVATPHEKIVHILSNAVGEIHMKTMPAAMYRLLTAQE

APBA2_1, Q99767 = biological target: T7, APBA2_1, Q99767
T7 sequence (Q99767 563-664, limits assumed, looked up): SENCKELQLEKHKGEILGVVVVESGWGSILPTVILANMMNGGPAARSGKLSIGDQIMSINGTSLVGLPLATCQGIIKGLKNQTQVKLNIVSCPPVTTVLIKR

DLG1_2, Q12959 = biological target: DLG1_2, Q12959
LNX1_1, Q8TBB1 = biological target: LNX1_1, Q8TBB1
Inadl_10, Q8NI35 = biological target: Inadl_10, Q8NI35
DLG2_3, Q15700 = biological target: DLG2_3, Q15700
HTRA2, O43464 = biological target: HTRA2, O43464
Inadl_9, Q8NI35 = biological target: Inadl_9, Q8NI35
LNX1_2, Q8TBB1 = biological target: LNX1_2, Q8TBB1
GRASP, Q7Z6J2 = biological target: GRASP, Q7Z6J2
AHNAK1, Q09666 = biological target: AHNAK1, Q09666
FRMPD3, Q5JV73 = biological target: FRMPD3, Q5JV73
ARHGEF11, O15085 = biological target: T8, ARHGEF11, O15085
T8 sequence (O15085 42-136, limits assumed, looked up): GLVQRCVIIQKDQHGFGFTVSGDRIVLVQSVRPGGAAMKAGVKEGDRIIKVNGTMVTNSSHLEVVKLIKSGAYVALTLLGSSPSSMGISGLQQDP

LIN7C, Q9NUP9 = biological target: T9, LIN7C, Q9NUP9
T9 sequence (Q9NUP9 88-185, limits assumed, looked up): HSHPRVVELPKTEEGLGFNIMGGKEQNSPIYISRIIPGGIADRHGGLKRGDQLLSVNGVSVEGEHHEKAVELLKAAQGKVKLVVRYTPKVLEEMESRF

DLG3_1, Q92796 = biological target: T10, DLG3_1, Q92796
T10 sequence (Q92796 125-227, limits assumed, looked up): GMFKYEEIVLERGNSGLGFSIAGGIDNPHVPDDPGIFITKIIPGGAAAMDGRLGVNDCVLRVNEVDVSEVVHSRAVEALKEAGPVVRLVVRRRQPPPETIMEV

PCLO, Q9Y6V0 = biological target: T11, PCLO, Q9Y6V0
T11 sequence (Q9Y6V0 4491-4600, limits assumed, looked up): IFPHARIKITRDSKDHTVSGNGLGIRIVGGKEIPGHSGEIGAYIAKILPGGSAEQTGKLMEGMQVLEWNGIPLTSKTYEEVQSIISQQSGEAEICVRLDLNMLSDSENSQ

GRIP2_7, Q9C0E4 = biological target: GRIP2_7, Q9C0E4
GRIP2_7, Q9C0E4, sequence (Q9C0E4 934-1023): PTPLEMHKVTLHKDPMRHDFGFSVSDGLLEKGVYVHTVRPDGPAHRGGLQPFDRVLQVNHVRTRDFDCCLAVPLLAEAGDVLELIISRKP

GRASP, Q7Z6J2, sequence (Q7Z6J2 96-193): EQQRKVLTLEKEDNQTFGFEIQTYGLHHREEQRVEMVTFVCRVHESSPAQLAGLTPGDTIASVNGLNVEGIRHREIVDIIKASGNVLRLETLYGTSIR
HTRA2, O43464, sequence (O43464 355-458): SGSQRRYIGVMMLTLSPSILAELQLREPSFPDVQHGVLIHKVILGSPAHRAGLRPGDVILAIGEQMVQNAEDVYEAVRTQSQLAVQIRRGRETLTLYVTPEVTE
FRMPD3, Q5JV73, sequence (Q5JV73 12-100): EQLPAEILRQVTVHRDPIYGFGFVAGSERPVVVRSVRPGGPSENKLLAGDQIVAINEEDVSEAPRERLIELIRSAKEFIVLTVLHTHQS
FRMPD2_3, Q68DX3, sequence (Q68DX3 1073-1166): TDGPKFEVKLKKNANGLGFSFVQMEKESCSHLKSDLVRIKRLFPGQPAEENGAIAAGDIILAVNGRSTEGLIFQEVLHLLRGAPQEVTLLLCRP
LIMK2, P53671, sequence (P53671 143-248): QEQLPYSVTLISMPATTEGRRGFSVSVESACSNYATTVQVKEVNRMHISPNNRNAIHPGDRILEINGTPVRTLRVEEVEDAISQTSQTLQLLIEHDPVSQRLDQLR
MAGI2_6, Q86UL8, sequence (Q86UL8 1141-1229): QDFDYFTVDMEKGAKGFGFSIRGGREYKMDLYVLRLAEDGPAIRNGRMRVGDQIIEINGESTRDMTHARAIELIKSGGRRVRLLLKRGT
AHNAK1, Q09666, sequence (Q09666 4-100): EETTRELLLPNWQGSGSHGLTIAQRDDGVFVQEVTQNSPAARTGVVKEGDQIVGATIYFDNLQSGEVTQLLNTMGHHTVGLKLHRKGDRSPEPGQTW
LNX1_2, Q8TBB1, sequence (Q8TBB1 371-470): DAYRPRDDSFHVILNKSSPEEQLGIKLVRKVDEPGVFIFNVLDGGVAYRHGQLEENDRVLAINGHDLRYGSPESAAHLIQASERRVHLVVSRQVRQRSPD
Inadl_10, Q8NI35, sequence (Q8NI35 1673-1763): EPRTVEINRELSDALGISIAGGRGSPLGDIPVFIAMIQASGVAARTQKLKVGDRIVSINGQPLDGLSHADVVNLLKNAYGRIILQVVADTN
DLG5_1, Q8TDM6, sequence (Q8TDM6 617-713): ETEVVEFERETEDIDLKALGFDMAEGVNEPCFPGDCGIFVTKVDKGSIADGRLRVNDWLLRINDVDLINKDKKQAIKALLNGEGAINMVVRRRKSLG
Inadl_9, Q8NI35, sequence (Q8NI35 1530-1615): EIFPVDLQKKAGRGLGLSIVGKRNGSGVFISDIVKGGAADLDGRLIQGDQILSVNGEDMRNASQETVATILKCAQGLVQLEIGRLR
LNX1_1, Q8TBB1, sequence (Q8TBB1 261-371): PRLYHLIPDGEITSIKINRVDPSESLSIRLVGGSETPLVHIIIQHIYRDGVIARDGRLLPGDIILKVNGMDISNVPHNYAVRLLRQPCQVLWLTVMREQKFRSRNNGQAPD
MAGI3_2, Q5TCQ9, sequence (Q5TCQ9 398-503): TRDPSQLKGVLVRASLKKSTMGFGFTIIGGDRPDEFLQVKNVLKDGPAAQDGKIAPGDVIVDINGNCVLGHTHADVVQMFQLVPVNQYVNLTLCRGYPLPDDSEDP
DLG1_2, Q12959, sequence (Q12959 314-412): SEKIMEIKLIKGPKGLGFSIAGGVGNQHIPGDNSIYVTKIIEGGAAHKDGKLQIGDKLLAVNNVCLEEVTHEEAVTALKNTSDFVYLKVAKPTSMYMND

B1: RAB9A, P51151 (peptide)
chain: RKPKPSSSCC
- pKd (TX1BP3, O14907): 3.89
- pKd (DLG5_1, Q8TDM6): below the threshold
- pKd (SNTG2, Q9NY99): below the threshold
- pKd (MAGI3_2, Q5TCQ9): below the threshold
- pKd (RAPGEF6, Q8TEU7): below the threshold
- pKd (LIMK2, P53671): below the threshold
- pKd (PARD3B_1, Q8TEW8): below the threshold
- pKd (FRMPD2_3, Q68DX3): below the threshold
- pKd (MAGI2_6, Q86UL8): below the threshold
- pKd (LIN7A, O14910): below the threshold
- pKd (APBA1_2, Q02410): below the threshold
- pKd (APBA2_1, Q99767): below the threshold
- pKd (DLG1_2, Q12959): below the threshold
- pKd (LNX1_1, Q8TBB1): below the threshold
- pKd (Inadl_10, Q8NI35): below the threshold
- pKd (DLG2_3, Q15700): 3.53
- pKd (HTRA2, O43464): below the threshold
- pKd (Inadl_9, Q8NI35): below the threshold
- pKd (LNX1_2, Q8TBB1): below the threshold
- pKd (GRASP, Q7Z6J2): below the threshold
- pKd (AHNAK1, Q09666): below the threshold
- pKd (FRMPD3, Q5JV73): below the threshold
- pKd (ARHGEF11, O15085): below the threshold
- pKd (LIN7C, Q9NUP9): 3.69
- pKd (DLG3_1, Q92796): below the threshold
- pKd (PCLO, Q9Y6V0): below the threshold
- pKd (GRIP2_7, Q9C0E4): below the threshold

B2: ABCC6, O95255 (peptide)
chain: YRLAQESGLV
- pKd (TX1BP3, O14907): below the threshold
- pKd (DLG5_1, Q8TDM6): below the threshold
- pKd (SNTG2, Q9NY99): 3.61
- pKd (MAGI3_2, Q5TCQ9): below the threshold
- pKd (RAPGEF6, Q8TEU7): below the threshold
- pKd (LIMK2, P53671): below the threshold
- pKd (PARD3B_1, Q8TEW8): 4.13
- pKd (FRMPD2_3, Q68DX3): below the threshold
- pKd (MAGI2_6, Q86UL8): below the threshold
- pKd (LIN7A, O14910): below the threshold
- pKd (APBA1_2, Q02410): below the threshold
- pKd (APBA2_1, Q99767): below the threshold
- pKd (DLG1_2, Q12959): below the threshold
- pKd (LNX1_1, Q8TBB1): below the threshold
- pKd (Inadl_10, Q8NI35): below the threshold
- pKd (DLG2_3, Q15700): below the threshold
- pKd (HTRA2, O43464): below the threshold
- pKd (Inadl_9, Q8NI35): below the threshold
- pKd (LNX1_2, Q8TBB1): below the threshold
- pKd (GRASP, Q7Z6J2): below the threshold
- pKd (AHNAK1, Q09666): below the threshold
- pKd (FRMPD3, Q5JV73): below the threshold
- pKd (ARHGEF11, O15085): below the threshold
- pKd (LIN7C, Q9NUP9): 4.01
- pKd (DLG3_1, Q92796): below the threshold
- pKd (PCLO, Q9Y6V0): below the threshold
- pKd (GRIP2_7, Q9C0E4): below the threshold

B3: SLC2A7, Q6PXP3 (peptide)
chain: TASPAKETSF
- pKd (TX1BP3, O14907): 3.79
- pKd (DLG5_1, Q8TDM6): below the threshold
- pKd (SNTG2, Q9NY99): below the threshold
- pKd (MAGI3_2, Q5TCQ9): below the threshold
- pKd (RAPGEF6, Q8TEU7): below the threshold
- pKd (LIMK2, P53671): below the threshold
- pKd (PARD3B_1, Q8TEW8): 3.96
- pKd (FRMPD2_3, Q68DX3): below the threshold
- pKd (MAGI2_6, Q86UL8): 4.1
- pKd (LIN7A, O14910): 3.77
- pKd (APBA1_2, Q02410): below the threshold
- pKd (APBA2_1, Q99767): below the threshold
- pKd (DLG1_2, Q12959): 4.5
- pKd (LNX1_1, Q8TBB1): below the threshold
- pKd (Inadl_10, Q8NI35): below the threshold
- pKd (DLG2_3, Q15700): 3.88
- pKd (HTRA2, O43464): below the threshold
- pKd (Inadl_9, Q8NI35): below the threshold
- pKd (LNX1_2, Q8TBB1): below the threshold
- pKd (GRASP, Q7Z6J2): below the threshold
- pKd (AHNAK1, Q09666): below the threshold
- pKd (FRMPD3, Q5JV73): below the threshold
- pKd (ARHGEF11, O15085): below the threshold
- pKd (LIN7C, Q9NUP9): 4.36
- pKd (DLG3_1, Q92796): below the threshold
- pKd (PCLO, Q9Y6V0): below the threshold
- pKd (GRIP2_7, Q9C0E4): below the threshold

B4: CRB2, Q5IJ48 (peptide)
chain: LKVPPEERLI
- pKd (TX1BP3, O14907): below the threshold
- pKd (DLG5_1, Q8TDM6): below the threshold
- pKd (SNTG2, Q9NY99): below the threshold
- pKd (MAGI3_2, Q5TCQ9): below the threshold
- pKd (RAPGEF6, Q8TEU7): below the threshold
- pKd (LIMK2, P53671): below the threshold
- pKd (PARD3B_1, Q8TEW8): 3.88
- pKd (FRMPD2_3, Q68DX3): below the threshold
- pKd (MAGI2_6, Q86UL8): below the threshold
- pKd (LIN7A, O14910): below the threshold
- pKd (APBA1_2, Q02410): below the threshold
- pKd (APBA2_1, Q99767): below the threshold
- pKd (DLG1_2, Q12959): below the threshold
- pKd (LNX1_1, Q8TBB1): below the threshold
- pKd (Inadl_10, Q8NI35): below the threshold
- pKd (DLG2_3, Q15700): below the threshold
- pKd (HTRA2, O43464): below the threshold
- pKd (Inadl_9, Q8NI35): below the threshold
- pKd (LNX1_2, Q8TBB1): below the threshold
- pKd (GRASP, Q7Z6J2): below the threshold
- pKd (AHNAK1, Q09666): below the threshold
- pKd (FRMPD3, Q5JV73): below the threshold
- pKd (ARHGEF11, O15085): below the threshold
- pKd (LIN7C, Q9NUP9): below the threshold
- pKd (DLG3_1, Q92796): below the threshold
- pKd (PCLO, Q9Y6V0): below the threshold
- pKd (GRIP2_7, Q9C0E4): below the threshold

B5: TMEM225B, P0DP42 (peptide)
chain: ETQVTAETVI
- pKd (TX1BP3, O14907): below the threshold
- pKd (DLG5_1, Q8TDM6): below the threshold
- pKd (SNTG2, Q9NY99): 4.15
- pKd (MAGI3_2, Q5TCQ9): 3.79
- pKd (RAPGEF6, Q8TEU7): below the threshold
- pKd (LIMK2, P53671): below the threshold
- pKd (PARD3B_1, Q8TEW8): 4.18
- pKd (FRMPD2_3, Q68DX3): below the threshold
- pKd (MAGI2_6, Q86UL8): below the threshold
- pKd (LIN7A, O14910): below the threshold
- pKd (APBA1_2, Q02410): below the threshold
- pKd (APBA2_1, Q99767): below the threshold
- pKd (DLG1_2, Q12959): 4.37
- pKd (LNX1_1, Q8TBB1): 3.59
- pKd (Inadl_10, Q8NI35): below the threshold
- pKd (DLG2_3, Q15700): 3.66
- pKd (HTRA2, O43464): below the threshold
- pKd (Inadl_9, Q8NI35): below the threshold
- pKd (LNX1_2, Q8TBB1): below the threshold
- pKd (GRASP, Q7Z6J2): below the threshold
- pKd (AHNAK1, Q09666): below the threshold
- pKd (FRMPD3, Q5JV73): below the threshold
- pKd (ARHGEF11, O15085): below the threshold
- pKd (LIN7C, Q9NUP9): 4.07
- pKd (DLG3_1, Q92796): below the threshold
- pKd (PCLO, Q9Y6V0): below the threshold
- pKd (GRIP2_7, Q9C0E4): below the threshold
